Laboratory results as given in PMC5727130.
Values joined by “and” are separate entries in the source; they are usually repeats but may differ in a detail not shown here. Equal entries are not always repeated.

Tests used:
[1] = target: His6-NT*-thrombin cleavage site-Bri2 BRICHOS fusion protein (human) (UniProt Q9Y287); test: SEC; Ni-NTA-purified NT*-Bri2 BRICHOS fusion protein resolved on Superdex columns (Supplementary Fig. 1)
[2] = target: human Bri2 BRICHOS (residues 113–231) tagged C-terminally with AU1, secreted from HEK293 cells (human) (UniProt Q9Y287); test: immunoprecipitation and Western blot after non-reducing SDS-PAGE; culture medium of HEK293 cells transfected with Bri2 BRICHOS; reducing against non-reducing conditions
[3] = target: human Bri2 BRICHOS (residues 113–231) tagged C-terminally with AU1, secreted from HEK293 cells (human) (UniProt Q9Y287); test: Western blot after non-reducing SDS-PAGE; lysates of HEK293 cells transfected with Bri2 BRICHOS-AU1, anti-AU1 blot (Supplementary Fig. 9a)
[4] = target: recombinant human Bri2 BRICHOS domain (residues 113–231 of full-length human Bri2) (human) (UniProt Q9Y287); test: SDS-PAGE under non-reducing and reducing conditions; monomeric rh Bri2 BRICHOS (26.8 µM) incubated at 37 °C overnight in 20 mM phosphate pH 8.0, 0.2 mM EDTA, 0.02% NaN3
[5] = target: recombinant human Bri2 BRICHOS domain (residues 113–231 of full-length human Bri2) (human) (UniProt Q9Y287); test: SEC; rh Bri2 BRICHOS cleaved from isolated fusion-protein monomers; Superdex 200 PG
[6] = target: recombinant human Bri2 BRICHOS domain (residues 113–231 of full-length human Bri2) (human) (UniProt Q9Y287); test: Western blot after non-reducing SDS-PAGE; rh Bri2 BRICHOS monomer (5 µM) incubated at 37 °C in 80% (v/v) mouse serum, samples at different time points, goat anti-Bri2 BRICHOS blot
[7] = target: recombinant human Bri2 BRICHOS domain (residues 113–231 of full-length human Bri2) (human) (UniProt Q9Y287); test: SEC; rh Bri2 BRICHOS cleaved from isolated fusion-protein dimers; Superdex 200 PG
[8] = target: recombinant human Bri2 BRICHOS domain (residues 113–231 of full-length human Bri2) (human) (UniProt Q9Y287); test: negative-stain TEM single-particle 3D reconstruction; oligomers isolated on Superose 6 GL in 20 mM ammonium acetate pH 8.0, 2% uranyl acetate stain, D2 symmetry applied; number of subunits from the volume of the map against that of a monomer model

Substance: His6-NT*-thrombin cleavage site-Bri2 BRICHOS fusion protein (from UniProt Q9Y287 113-231) (domain or fragment)
- stoichiometry N [1]: 2

Substance: human Bri2 BRICHOS (residues 113–231) tagged C-terminally with AU1, secreted from HEK293 cells (from UniProt Q9Y287 113-231) (domain or fragment)
- stoichiometry N [2]: 2 and 4
- stoichiometry N [3]: 2 and 4

Substance: recombinant human Bri2 BRICHOS domain (residues 113–231 of full-length human Bri2) (from UniProt Q9Y287 113-231) (domain or fragment)
- stoichiometry N [4]: 2
- stoichiometry N [5]: 2
- stoichiometry N [6]: 2 and 4 and 6
- stoichiometry N [7]: 2 and 4
- stoichiometry N [8]: 24
